Source: publication PMC7174398 (Nature Communications, 2020)

Assays:
[1] = molecular target: the molecule itself; assay: SEC-MALS; mHsp60 with mHsp10, pre-incubated with 1 mM ATP for 5 min; Superose-6, ~25 C
[2] = molecular target: the molecule itself; assay: SEC-MALS; mHsp60 (WT or variant) with mHsp10, pre-incubated with 1 mM ATP, 1 mM BeCl2 and 10 mM NaF for 5 min; Superose-6, ~25 C

B1: wild-type human mitochondrial Hsp60 (mHsp60) (natural protein)
chain: GSAKDVKFGADARALMLQGVDLLADAVAVTMGPKGRTVIIEQSWGSPKVTKDGVTVAKSIDLKDKYKNIGAKLVQDVANNTNEEAGDGTTTATVLARSIAKEGFEKISKGANPVEIRRGVMLAVDAVIAELKKQSKPVTTPEEIAQVATISANGDKEIGNIISDAMKKVGRKGVITVKDGKTLNDELEIIEGMKFDRGYISPYFINTSKGQKCEFQDAYVLLSEKKISSIQSIVPALEIANAHRKPLVIIAEDVDGEALSTLVLNRLKVGLQVVAVKAPGFGDNRKNQLKDMAIATGGAVFGEEGLTLNLEDVQPHDLGKVGEVIVTKDDAMLLKGKGDKAQIEKRIQEIIEQLDVTTSEYEKEKLNERLAKLSDGVAVLKVGGTSDVEVNEKKDRVTDALNATRAAVEEGIVLGGGCALLRCIPALDSLTPANEDQKIGIEIIKRTLKIPAMTIAKNAGVEGSLIVEKIMQSSSEVGYDAMAGDFVNMVEKGIIDPTKVVRTALLDAAGVASLLTTAEVVVTEIPKEEKDPGMGAMGGMGGGMGGGMF
notes: residues left at the N-terminus after TEV cleavage and removal of the HisTag; human mitochondrial Hsp60 (mt-cpn60); Oligomeric state depends on nucleotide and concentration: monomers, heptameric single rings, tetradecameric double rings; also called WT mHsp60; mt-cpn60; source: E. coli Rosetta, purified (nickel-agarose, TEV cleavage, anion exchange, oligomerised with ATP, Superdex 200); not …
B1 was tested, and the “stoichiometry N” value [1] was 7 and the “stoichiometry N” value [2] was 14.
